Assay results from paper PMC11170914, “A distinct dimer configuration of a diatom Get3 forming a tetrameric complex with its tail-anchored membrane cargo” (BMC Biology, 2024).
Values joined by “and” are separate entries in the source; they are usually repeats but may differ in a detail not shown here. Identical values can stand only once.

Key:
[1] = molecular target: Pt-Get3a (full-length, amino acids 1–349), purified, His-tag cleaved (Phaeodactylum tricornutum); assay: SEC; purified Pt-Get3a alone; NaCl increased to 500 mM; peak at ~78 mL
[2] = molecular target: Pt-Get3a (full-length, amino acids 1–349), purified, His-tag cleaved (Phaeodactylum tricornutum); assay: SEC; purified Pt-Get3a (after TEV cleavage of the 6His-tag) or its mutants alone; near physiological saline, ~100 mM NaCl; tetramer-dimer equilibrium
[3] = molecular target: Pt-Get3a (full-length, amino acids 1–349), purified, His-tag cleaved (Phaeodactylum tricornutum); assay: SAXS; HPLC with online size exclusion column, beamline BL23A1 (NSRRC), proteins ~5 mg/mL; P2 symmetry for the dimer, p222 for the Pt-Get3a/TA complex
[4] = molecular target: Pt-Get3a L283D_I290D, purified (Phaeodactylum tricornutum); assay: SEC; purified Pt-Get3a (after TEV cleavage of the 6His-tag) or its mutants alone; near physiological saline, ~100 mM NaCl; tetramer-dimer equilibrium
[5] = molecular target: Pt-Get3a wild type, co-expressed with His-tagged TA protein (Phaeodactylum tricornutum); assay: SAXS; HPLC with online size exclusion column, beamline BL23A1 (NSRRC), proteins ~5 mg/mL; P2 symmetry for the dimer, p222 for the Pt-Get3a/TA complex
[6] = molecular target: Pt-Get3a wild type, co-expressed with His-tagged TA protein (Phaeodactylum tricornutum); assay: SEC; Pt-Get3a/TA complex co-expressed and co-purified by Ni-NTA, then Superdex-200; ~100 mM NaCl and, as a control, 500 mM NaCl; fractions on SDS-PAGE

Substance: Pt-Get3a (full-length, amino acids 1–349), purified, His-tag cleaved (natural protein)
- stoichiometry N [1]: 2
- stoichiometry N [2]: 4
- stoichiometry N [3]: 2

Substance: Pt-Get3a L283D_I290D, purified (natural protein)
- stoichiometry N [4]: 2

Substance: Pt-Get3a wild type, co-expressed with His-tagged TA protein (natural protein)
- stoichiometry N [5]: 4
- stoichiometry N [6]: 4 and 2
